Patent US20190062438A1 (CSL, published 2019)
Residue numbers refer to the chain shown, from its start. Values joined by “and” are separate entries in the source; they are usually repeats but may differ in a detail not shown here. Equal entries are not always repeated.

Columns and labels:
Test in all cases: SPR, kinetics, Fab over captured mutant
shCD131 R364A = target: T1, shCD131 R364A (human, UniProt P32927 17-438)
T1 construct: C-terminal 6xHis
T1 sequence: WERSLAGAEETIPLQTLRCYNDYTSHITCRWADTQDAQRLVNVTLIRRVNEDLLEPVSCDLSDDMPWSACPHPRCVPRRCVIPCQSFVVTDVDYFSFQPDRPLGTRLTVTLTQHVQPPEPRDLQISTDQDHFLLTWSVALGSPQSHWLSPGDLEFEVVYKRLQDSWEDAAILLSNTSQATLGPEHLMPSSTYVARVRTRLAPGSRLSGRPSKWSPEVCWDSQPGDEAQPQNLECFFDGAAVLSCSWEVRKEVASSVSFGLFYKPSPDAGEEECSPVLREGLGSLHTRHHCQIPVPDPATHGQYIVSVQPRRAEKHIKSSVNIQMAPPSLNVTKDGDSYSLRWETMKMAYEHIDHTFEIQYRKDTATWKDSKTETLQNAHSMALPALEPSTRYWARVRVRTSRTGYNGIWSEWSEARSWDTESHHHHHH
Description: (§1) As shβc is a dimer, kinetics assays were performed with shβc captured on the sensor surface, and purified Fab injected as the analyte. Avidity effects were avoided by the use of Fab rather than whole IgG.
(§2) shCD131 was captured on spots 1 and 5 of each flow cell for 2 minutes at a concentration of 0.4 μg/ml. […] For some analysis purified Fab was injected over each flow cell for 3 minutes and dissociation was monitored for a further 10 minutes. Regeneration of the surface was performed after each cycle with a 40 second injection of 25 mM glycine, pH 2.0. The analysis was performed with Fabs at several concentrations between 100 and 0.31 nM, with each concentration analyzed twice and in random order. The analysis was performed at a flow rate of 30 μl/min in HBS-EP buffer (10 mM Hepes, 150 mM NaCl, 3 mM EDTA, 0.005% Tween 20, pH 7.4) at 37° C. Responses from spots 2 and 4 of each flow cell, (in which shβc was not captured, but otherwise treated identically), were subtracted from those of spots 1 and 5 respectively to produce reference subtracted data. Reference subtracted responses from a blank injection comprising buffer alone were subtracted from the resultant sensorgrams to produce double referenced data suitable for kinetic analysis. Double-referenced sensorgrams were fitted using non-linear regression to a model describing 1:1 kinetics, including a term for mass transport limitation. The Rₘₐₓ value was fitted locally to account for slight deviations in the level of sCD131 captured, with association rate (kₐ), dissociation rate (kd) and equilibrium dissociation constant (KD) fitted globally.
(§3) Mapping of the shCD131 epitope was performed by measurement of the affinity of Fabs for various alanine point mutants of shCD131 essentially as described above, with the following exceptions. Each shCD131 mutant was captured for 120 seconds at concentrations between 1 and 5 μg/ml. For kinetic analysis, purified recombinant Fabs were injected for 2 minutes, and dissociation was monitored for a further 2 minutes. […] Fab concentrations ranged from 16 μM to 3.9 nM in two-fold dilutions.

shCD131 K362A = target: T2, shCD131 K362A (human, UniProt P32927 17-438)
T2 construct: C-terminal 6xHis
T2 sequence: T1 sequence with K346A, A348R
Description: as §1, §2, §3

shCD131 D107A = target: T3, shCD131 D107A (human, UniProt P32927 17-438)
T3 construct: C-terminal 6xHis
T3 sequence: T1 sequence with D91A, A348R
Description: as §1, §2, §3

shCD131 H42A = target: T4, shCD131 H42A (human, UniProt P32927 17-438)
T4 construct: C-terminal 6xHis
T4 sequence: T1 sequence with H26A, A348R
Description: as §1, §2, §3

B1: 9A2 Fab (Fab, V domains shown)
VH: EVQLLESGGGLVQPGGSLRLSCAASGFTFSHYHMLWVRQAPGKGLEWVSSIRSSGGFTYYADSVKGRFTISRDNSKNTLYLQMNSLRAEDTAVYYCARFYDSFFDIWGQGTMVTVSS
VL: DIQMTQSPSSVSASVGDRVTITCRASQGISSWLAWYQQKPGKAPKLLIYAASSLQSGVPSRFSGSGSGTDFTLTISSLQPEDFATYYCQQANSFPITFGQGTRLEIKR
notes: also called recombinant Fab of 9A2
For B1, the Kd (shCD131 R364A) was 119 nM, the Kd (shCD131 K362A) was 64.8 nM and 65 nM and the Kd (shCD131 D107A) was 191 nM. For the same binder, the Kd (shCD131 H42A) was 41 nM.
